Experimental data as given in patent publication US20240076386A1 (Pfizer, published 2024).
Numbering of substitutions follows the chain as printed.

B1: humanized anti-E-selectin antibody 0841 (antibody, human IgG1, kappa, V domains shown)
VH: EVQLVESGGGLVQPGGSLRLSCAASGYNIRSSYMHWVRQAPGKGLEWVARIDPANGNTIYAEKFKIRFTISADNAKNSAYLQMNSLRAEDTAVYYCAMDLYSTSEYWGQGTLVTVSS
VL: DIQMTQSPSSLSASVGDRVTITCKTSQNINRYLNWYQQKPGKAPKLLIYNANSLQTGVPSRFSGSGSGTDFTLTISSLQPEDFATYFCLQDNSWPLTFGQGTKVEIKR
notes: effector-null human IgG1, kappa
B2: optimized anti-E-selectin antibody 1444 (antibody, human IgG1, kappa, V domains shown)
VH: B1 VH with N28A, S32A, A61V, E62D, K63S, F64V, K65T, I66G
VL: B1 VL with N30E, N50A, N52S, T56S, S93A
notes: as for B1

What was measured:
[1] = biological target: T1, human E-selectin extracellular domain with 10 His purification tail (human, UniProt P16581 22-556); assay: SPR, antibody captured, E-selectin analyte
T1 construct: also called soluable human E-selectin extracellular domain; rhE-Selectin
T1 sequence: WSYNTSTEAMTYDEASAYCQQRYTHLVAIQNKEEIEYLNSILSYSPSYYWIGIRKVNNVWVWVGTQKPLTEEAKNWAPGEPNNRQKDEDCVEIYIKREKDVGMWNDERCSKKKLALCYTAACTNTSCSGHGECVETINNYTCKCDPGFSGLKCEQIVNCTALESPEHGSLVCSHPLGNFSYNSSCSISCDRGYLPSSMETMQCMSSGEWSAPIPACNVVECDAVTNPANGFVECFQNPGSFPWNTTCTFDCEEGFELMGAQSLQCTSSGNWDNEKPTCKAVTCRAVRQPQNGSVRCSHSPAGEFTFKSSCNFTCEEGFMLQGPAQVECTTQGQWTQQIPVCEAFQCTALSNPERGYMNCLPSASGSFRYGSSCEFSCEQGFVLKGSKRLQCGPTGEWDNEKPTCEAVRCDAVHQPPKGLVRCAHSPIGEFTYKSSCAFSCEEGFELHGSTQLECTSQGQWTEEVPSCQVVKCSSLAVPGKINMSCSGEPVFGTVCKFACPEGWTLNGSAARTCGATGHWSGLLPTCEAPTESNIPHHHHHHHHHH
Experimental: Final immobilization level of the capture antibody was approximately 10,000 resonance units (RU). The running buffer for immobilization and kinetics was HBS-EP+(10 mM 4-(2-hydroxyethyl)-1-piperazineethanesulfonic acid (HEPES) pH 7.4, 150 mM sodium chloride, 3 mM ethylenediaminetetraacetic acid (EDTA), 0.05% (v/v) Tween-20).
(§1) To characterize binding of antibodies to human, cynomolgus monkey, and mouse E-selectin, an antibody was diluted to 0.5 μg/mL in HBS-EP+ and captured by the anti-human IgG immobilized on flow cells 2, 3 and 4 for 30 seconds to 1 minute at a flow rate of 10 μL/minute to achieve a capture level of 70 to 300 RU. Flow cell 1 was used as a reference surface. […] HBS-EP+ buffer cycles collected for each captured antibody were used for double-referencing (Myszka D G. J. Mol. Recognition 1999; 12(5):279-84). At the end of each cycle, the entire anti-IgG surface was regenerated by a 30 second pulse of 3 M MgCl₂ and a 30 second pulse of ionic buffer (1.83 M MgCl₂, 0.92 M Urea, 1.83 M Guanidine HCl, pH 7.4) (Andersson K. Analy. Chem. 1999; 71(13): 2475-81). Kinetic assays were conducted at 25° C. at a collection rate of 10 Hertz (Hz) on a BIAcore™ T200 instrument (GE Healthcare). Rate constants and affinities were determined by fitting the data to a 1:1 binding model in BIAcore™ T200 Evaluation software version 3.0 (GE Healthcare).
This was done by first binding the antibody to immobilized anti-human IgG. After antibody capture, dilutions of the E-selectin proteins were flowed over and the association rate constant (ka), disassociation rate constant (kd), t½, and KD values were determined for binding to human and cynomolgus E-selectin (Table 13).

[2] = biological target: T1, human E-selectin extracellular domain …; assay: SPR, soluble recombinant protein
Experimental: as §1

[3] = biological target: T2, cynomolgus monkey E-selectin extracellular domain with 10 His purification tail (cynomolgus monkey, UniProt P16581 22-554 (human entry)); assay: SPR, soluble recombinant protein
T2 construct: also called cynomolgus E-selectin; truncated cynomolgus monkey E-selectin
T2 chain: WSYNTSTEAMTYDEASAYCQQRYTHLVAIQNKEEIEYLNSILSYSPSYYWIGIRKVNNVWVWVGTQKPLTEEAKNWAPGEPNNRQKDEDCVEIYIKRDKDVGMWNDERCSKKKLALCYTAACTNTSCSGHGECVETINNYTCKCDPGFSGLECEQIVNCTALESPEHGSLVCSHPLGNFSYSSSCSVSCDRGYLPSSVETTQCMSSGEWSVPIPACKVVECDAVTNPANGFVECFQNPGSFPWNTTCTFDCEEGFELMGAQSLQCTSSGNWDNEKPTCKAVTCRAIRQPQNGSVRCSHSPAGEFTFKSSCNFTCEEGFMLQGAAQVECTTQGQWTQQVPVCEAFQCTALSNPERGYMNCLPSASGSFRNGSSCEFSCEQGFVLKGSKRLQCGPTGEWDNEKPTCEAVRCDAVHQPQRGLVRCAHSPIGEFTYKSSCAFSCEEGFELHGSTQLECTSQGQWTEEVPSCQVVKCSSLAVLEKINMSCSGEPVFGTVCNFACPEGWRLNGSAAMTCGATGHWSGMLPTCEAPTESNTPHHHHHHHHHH
Experimental: as §1

[4] = biological target: T3, cynomolgus monkey E-selectin, cell-surface expressed (cynomolgus monkey, UniProt P16581 22-610 (human entry)); assay: cell-based or functional assay
T3 chain: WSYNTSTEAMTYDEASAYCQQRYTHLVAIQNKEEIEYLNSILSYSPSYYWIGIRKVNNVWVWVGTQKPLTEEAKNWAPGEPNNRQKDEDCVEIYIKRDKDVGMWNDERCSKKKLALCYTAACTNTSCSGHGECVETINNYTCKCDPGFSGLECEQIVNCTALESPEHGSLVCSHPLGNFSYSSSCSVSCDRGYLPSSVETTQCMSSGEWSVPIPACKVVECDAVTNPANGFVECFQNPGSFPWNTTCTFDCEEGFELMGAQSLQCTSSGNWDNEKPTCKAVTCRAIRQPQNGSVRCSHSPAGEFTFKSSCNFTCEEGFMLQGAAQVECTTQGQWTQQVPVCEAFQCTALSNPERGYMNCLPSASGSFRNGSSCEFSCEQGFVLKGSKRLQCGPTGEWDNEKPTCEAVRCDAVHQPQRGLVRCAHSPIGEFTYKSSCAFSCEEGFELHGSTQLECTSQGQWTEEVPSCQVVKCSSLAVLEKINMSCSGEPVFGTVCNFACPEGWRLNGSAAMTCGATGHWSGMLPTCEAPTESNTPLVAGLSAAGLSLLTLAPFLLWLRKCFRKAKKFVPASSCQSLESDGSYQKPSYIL

Binder | Kd [1] [nM] | koff [1] [s⁻¹] | kon [1] [M⁻¹ s⁻¹] | t½ [1] [s] | Kd [2] [nM] | Kd [3] [nM] | Flow adhesion neutralization of HL-60 cells, CHO cells, cynomolgus monkey E-selectin, IC50 [4] [nM] | Neutralization of Human Neutrophils, CHO cells, cynomolgus E-selectin, flow, IC50 [4] [nM] | Static adhesion neutralization of HL-60 cells, CHO cells, cynomolgus monkey E-selectin, IC50 [4] [nM]
B1 | 92.8 | 0.0237 | 255000 | 29.3 |  |  |  |  | 
B2 |  |  |  |  | 68.4 | 64.9 | 4.32 to 4.35 | 9.45 to 16.3 | 3.84
